Reference: patent publication US20240132578A1

Tests used:
[1] = target: Endo H treated JR-FL gP120 (HIV-1 JR-FL); assay: ELISA, antigen-coated wells, mAb titrated; EC50 by nonlinear regression
[2] = target: HIV-1 envelope glycoprotein (Env) of isolate MGRM-AG-005 (HIV-1); assay: cell-based or functional assay
[3] = target: HIV-1 envelope glycoprotein (Env) of isolate JRCSF (HIV-1) (UniProt P20871); assay: cell-based or functional assay
[4] = target: HIV-1 MGRM-C-027 envelope glycoprotein (Env) on virus (HIV-1, clade C, isolate MGRM-C-027); assay: cell-based or functional assay
[5] = target: HIV-1 JRFL envelope glycoprotein (Env) on virus (HIV-1, clade B, isolate JRFL); assay: cell-based or functional assay
[6] = target: HIV-1 JRCSF Env (pseudovirus) (HIV-1) (UniProt P20871); assay: cell-based or functional assay
[7] = target: HIV-1 94UG103 envelope glycoprotein (Env) (HIV-1); assay: cell-based or functional assay
[8] = target: HIV-1 93UG077 envelope glycoprotein (Env) (HIV-1); assay: cell-based or functional assay
[9] = target: HIV-1 Env of pseudovirus CAAN (HIV-1); assay: cell-based or functional assay
[10] = target: HIV-1 Env of pseudovirus THRO.18 (HIV-1); assay: cell-based or functional assay
[11] = target: HIV-1 JRCSF envelope glycoprotein (Env), clade B pseudovirus (HIV-1); assay: cell-based or functional assay
[12] = target: HIV-1 JR-CSF Env K343A (HIV-1 isolate JR-CSF) (UniProt P20871); assay: cell-based or functional assay
[13] = target: HIV-1 Env of isolate MG RM-D-029 (subtype D) (HIV-1); assay: cell-based or functional assay
[14] = target: HIV-1 Env of isolate 92UG005 (subtype D) (HIV-1); assay: cell-based or functional assay
[15] = target: HIV-1 Env of isolate MGRM-Chronic-B-003 (subtype B), on pseudovirus (HIV-1); assay: cell-based or functional assay
[16] = target: HIV-1 Env of isolate MGRM-Chronic-B-020 (subtype B), on pseudovirus (HIV-1); assay: cell-based or functional assay
[17] = target: HIV-1 Env of isolate MG RM-C-020 (HIV-1); assay: cell-based or functional assay
[18] = target: HIV-1 Env of isolate NL43 (clade B) (HIV-1); assay: cell-based or functional assay
[19] = target: HIV-1 Env of isolate 94UG103 (clade A) (HIV-1); assay: cell-based or functional assay

Sequence of 5329_C19 (PGT-136) (antibody) (VH): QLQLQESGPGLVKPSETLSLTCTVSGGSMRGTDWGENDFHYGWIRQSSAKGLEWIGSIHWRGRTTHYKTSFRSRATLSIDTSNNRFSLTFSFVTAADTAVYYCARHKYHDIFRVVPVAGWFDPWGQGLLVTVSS
Sequence of 5329_C19 (PGT-136) (antibody) (VL): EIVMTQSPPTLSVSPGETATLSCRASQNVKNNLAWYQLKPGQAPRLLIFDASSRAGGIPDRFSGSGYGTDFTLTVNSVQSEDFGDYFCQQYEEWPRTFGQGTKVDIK
Sequence of 1443_C16 (PG16) (TCN-116) (antibody) (VH): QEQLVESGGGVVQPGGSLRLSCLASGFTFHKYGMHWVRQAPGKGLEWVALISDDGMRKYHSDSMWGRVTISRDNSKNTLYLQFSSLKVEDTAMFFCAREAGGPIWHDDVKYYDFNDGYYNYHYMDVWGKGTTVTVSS
Sequence of 1443_C16 (PG16) (TCN-116) (antibody) (VL): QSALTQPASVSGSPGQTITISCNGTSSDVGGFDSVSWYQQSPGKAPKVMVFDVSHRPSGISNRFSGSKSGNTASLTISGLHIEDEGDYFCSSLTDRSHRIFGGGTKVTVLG

Substance: 4838_L06 (PGT-121) (antibody)
- EC50 [1]: > 10 µg/mL

Substance: 5141_B17 (PGT-126) (antibody)
- Neutralization IC80 [2]: > 10 µg/mL
- Neutralization IC90 [2]: > 10 µg/mL
- Neutralization IC95 [2]: > 10 µg/mL
- neutralization IC50 [2]: 1.35 µg/mL
- Neutralization IC80 [3]: 0.018 µg/mL
- Neutralization IC90 [3]: 0.0339 µg/mL
- Neutralization IC95 [3]: 0.0608 µg/mL
- neutralization IC50 [3]: 6.1 ng/mL

Substance: 4877_D15 (PGT-122) (antibody)
- Neutralization IC80 [4]: 0.499 µg/mL
- Neutralization IC90 [4]: > 10 µg/mL
- Neutralization IC95 [4]: > 10 µg/mL
- neutralization IC50 [4]: 0.0388 µg/mL
- Neutralization IC80 [5]: 0.166 µg/mL
- Neutralization IC90 [5]: 0.342 µg/mL
- Neutralization IC95 [5]: 0.659 µg/mL
- neutralization IC50 [5]: 0.0471 µg/mL

Substance: 5123_A06 (PGT-125) (antibody)
- Neutralization by PGT-125, IC50 [6]: 6 ng/mL
- Neutralization by PGT-125, IC80 [6]: 0.0196 µg/mL
- Neutralization by PGT-125, IC90 [6]: 0.0392 µg/mL
- Neutralization by PGT-125, IC95 [6]: 0.0741 µg/mL

Substance: 5329_C19 (PGT-136) (antibody)
- Neutralization IC80 [7]: > 10 µg/mL
- Neutralization IC90 [7]: > 10 µg/mL
- Neutralization IC95 [7]: > 10 µg/mL
- neutralization IC50 [7]: > 10 µg/mL
- Neutralization IC80 [8]: > 10 µg/mL
- Neutralization IC90 [8]: > 10 µg/mL
- Neutralization IC95 [8]: > 10 µg/mL
- neutralization IC50 [8]: > 10 µg/mL

Substance: 1443_C16 (PG16) (TCN-116) (antibody)
- IC50, pseudovirus neutralization (TZM-bl assay) [9]: 6.37 µg/mL
- IC50, pseudovirus neutralization (TZM-bl assay) [10]: 2.19 µg/mL

Substance: 4858_P08 (PGT-123) (antibody)
- IC50, pseudovirus neutralization [11]: 0.0423 µg/mL
- IC80 (pseudovirus neutralization) [11]: 0.143 µg/mL
- IC90 (pseudovirus neutralization) [11]: 0.289 µg/mL
- IC95 (pseudovirus neutralization) [11]: 0.547 µg/mL
- Fold IC50 increase relative to wild-type [12]: 0.3 fold

Substance: PGV04 (antibody)
- IC50 (µg/mL), pseudovirus neutralization [13]: 1.56 µg/mL
- IC50 (µg/mL), pseudovirus neutralization [14]: 0.44 µg/mL
- IC50, single-round pseudovirus neutralization [15]: 0.258 µg/mL
- IC50, single-round pseudovirus neutralization [16]: 1.26 µg/mL
- IC50 (µg/mL), pseudovirus neutralization [17]: 0.112 µg/mL

Substance: 1496_C09 (PG9) (TCN-109) (antibody)
- neutralization IC50 [18]: 0.687 µg/mL
- Neutralization IC80 [19]: 1.95 µg/mL
- Neutralization IC90 [19]: 5.54 µg/mL
- neutralization IC50 [19]: 0.31 µg/mL
